According to article PMC3113298:

Target: Cu, Zn-superoxide dismutase-1 (SOD1), human (human) (UniProt P00441)
Sequence (P00441 whole entry): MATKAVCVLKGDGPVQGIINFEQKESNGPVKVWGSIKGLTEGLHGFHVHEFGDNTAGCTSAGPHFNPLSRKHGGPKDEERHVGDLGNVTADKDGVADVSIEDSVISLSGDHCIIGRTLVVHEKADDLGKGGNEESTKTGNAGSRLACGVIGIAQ

B1: Puromycin-sensitive aminopeptidase (PSA/NPEPPS), rat (enzyme)
chain: MWLAAAVPSLARRLLLLGSPPPPLLLLLSRSSSRRRRLHSLGLAAMPEKRPFERLPTEVSPINYSLCLKPDLLDFTFEGKLEAAAQVRQATNQIVMNCADIDIITASYAPEGDEEIHATGFNYQNEDEKVTLSFPSTLQTGTGTLKIDFVGELNDKMKGFYRSRYTTPAGEVRYAAVTQFEATDARRAFPCWDEPAIKATFDISLVVPKDRVALSNMNVIDRKPYPDDENLVEVKFARTPVMSTYLVAFVVGEYDFVETRSKDGVCVRVYTPVGKAEQGKFALEVAAKTLPFYKDYFNVPYPLPKIDLIAIADFAAGAMENWGLVTYRETALLIDPKNSCSSSRQWVALVVGHELAHQWFGNLVTMEWWTHLWLNEGFASWIEYLCVDHCFPEYDIWTQFVSADYTRAQELDALDNSHPIEVSVGHPSEVDEIFDAISYSKGASVIRMLHDYIGDKDFKKGMNMYLTKFQQKNAATEDLWESLESASGKPIAAVMNTWTKQMGFPLIYVEAEQVEDDRVLKLSQKKFCASGPYVGEDCPQWMVPITISTSEDPNQAKLKILMDKPEMSVVLKNVKPDQWVKLNLGTVGFYRTQYSSAMLESLLPGIRDLSLPPVDRLGLQNDLFSLARAGIISTVEVLKVMEAFVNEPNYTVWSDLSCNLGILSTLLSHTDFYEEIQEFVKDVFSPIGERLGWDPKPGEGHLDALLRGLVLGKLGKAGHKATLEEARRRFKEHVEGKQILSADLRSPVYLTVLKHGDGTTLDIMLKLHKQADMQEEKNRIERVLGATLSPELIQKVLTFALSEEVRPQDTVSVIGGVAGGSKHGRKAAWKFIKDNWEELYNRYQGGFLISRLIKLSVEGFAVDKMAGEVKAFFESHPAPSAERTIQQCCENILLNAAWLKRDADSIHQYLLQRKASPPSV
  proteolysis of purified human SOD1 by purified rat PSA/NPEPPS: loss of full-length SOD1 by Western blot after 6 h at 37°C, 50 mM Bicine pH 7.0, 0.2 mM DTT, molar ratio 1:6 (PSA:SOD1): 80%
